Test results reported in patent publication US20060121553A1, “Fluorogenic enzyme assay methods, kits and compositions using charge-balancers” (Applera Corporation, priority 2004, published 2006).
*: point of attachment. Palmitoyl = CCCCCCCCCCCCCCCC(=O)*; K(Dye 2) = not defined here; code O = not defined here

Legend:
[1] = Total charge of substrate molecule and charge-balance molecule; assay type: physicochemical
Text: FIG. 6B illustrates an exemplary charge-balance molecule (i.e. C16ArgArgOOOArgArgIleTyrGlyArgPheNH2, wherein OOO represents the optional O-spacers) that can be used balance the charge of the substrate molecule illustrated in FIG. 6A. The substrate molecule illustrated in FIG. 6A comprises a fluorescent moiety containing a sulfonate anion with a charge of ^−2. The substrate molecule illustrated in FIG. 6A further comprises a substrate moiety comprising three glutamate residues, each with a −1 charge. Thus, the total negative charge of the substrate molecule illustrated in FIG. 6A is ^−5 at physiological pH. […] The total positive charge of the charge-balance molecule illustrated in FIG. 6B is ^+5 at pH 7.6. Thus, the net charge of the compound comprising the substrate molecule illustrated in FIG. 6A and the charge-balance molecule illustrated in FIG. 6B is approximately zero at pH 7.6.

[2] = biological target: tyrosine kinase Lyn (Homo sapiens, UniProt P07948); experiment: Detection of protein kinase activity (fluorogenic micelle assay); assay type: biochemical; conditions: 2 μM substrate molecule, 2 μM charge-balance molecule, 0 or 100 μM ATP, 5 nM Lyn; FIG. 8
tyrosine kinase Lyn, sequence (P07948 whole entry): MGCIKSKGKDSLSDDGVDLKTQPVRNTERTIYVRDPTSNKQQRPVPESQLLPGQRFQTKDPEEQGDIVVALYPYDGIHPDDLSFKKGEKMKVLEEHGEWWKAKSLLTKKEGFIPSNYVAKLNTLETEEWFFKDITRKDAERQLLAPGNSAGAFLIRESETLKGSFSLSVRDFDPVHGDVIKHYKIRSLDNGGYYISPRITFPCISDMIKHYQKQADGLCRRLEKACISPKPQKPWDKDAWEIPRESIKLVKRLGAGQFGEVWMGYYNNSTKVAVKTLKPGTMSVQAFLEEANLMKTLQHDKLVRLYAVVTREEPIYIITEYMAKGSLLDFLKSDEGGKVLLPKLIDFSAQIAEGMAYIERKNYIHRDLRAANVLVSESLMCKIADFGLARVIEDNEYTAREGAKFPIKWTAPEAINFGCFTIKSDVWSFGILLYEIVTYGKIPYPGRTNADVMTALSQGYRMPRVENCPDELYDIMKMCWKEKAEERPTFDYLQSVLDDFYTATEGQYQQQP
Protocol: Kinase assays were performed using Corning 384-well, black, non-binding surface (NBS), microwell plates. Fluorescence was read in real time using a Molecular Dynamics Gemini XS plate reader, with excitation and emission set at 500 and 550 respectively. The plate was read every minute for one hour at ambient temperature.
Concentrations of the substrate molecule C16Lys(Dye 2)OOOGluGluIleTyrGlyGluPheNH2 and charge-balance molecule C16ArgArgOOOArgArgIleTyrGlyArg PheNH2 were determined by dilution of the purified peptides into dimethylformamide (200 µL) with 1 M NaOH (5 µL) and measuring the absorbance of 5-carboxy-2′,7′-dipyridyl-sulfonefluorescein (Dye2) at its absorbance maximum (548 nm). The extinction coefficient of Dye2 was assumed to be 80,000 cm1M-1.
A reaction solution was prepared containing the substrate molecule C16Lys(Dye 2)OOOGluGluIleTyrGlyGluPheNH2 (2 μM), and charge-balance molecule C16ArgArgOOOArgArgIleTyrGlyArg PheNH2 (2 μM), 20 mM Tris buffer, pH 7.6, MgCl2 (5 mM), DTT (5 mM) and Lyn (5 nM). The solution was pipetted into wells of a 384-well plate ([…] per well). ATP (0 or 100 μM) was added to initiate the kinase reaction. The plate was read at 500 nm excitation, 550 nm emission, each minute for 1 hour.

[3] = tested on: T1, substrate molecule C16Lys(Dye 2)OOOGluGluIleTyrGlyGluPheNH2
T1 sequence: KEEIYGEF

C16ArgArgOOOArgArgIleTyrGlyArgPheNH2 ({Palmitoyl-Arg-Arg-code O-code O-code O}-RRIYGRF-NH2; reading uncertain; also: printed as C16ArgArgOOOArgArgIleTyrGlyArgPheNH2) [charge-balance molecule balancing the charge of the substrate molecule; OOO = O-spacers]
total positive charge ([1]; pH 7.6): +5

C16Lys(Dye 2)OOOGluGluIleTyrGlyGluPheNH2 ({Palmitoyl-K(Dye 2)-code O-code O-code O}-EEIYGEF-NH2; reading uncertain; also: printed as C16Lys(Dye 2)OOOGluGluIleTyrGlyGluPheNH2) [substrate molecule for tyrosine kinase Lyn; OOO = O-spacers, Dye2 = 5-carboxy-2′,7′-dipyridyl-sulfonefluorescein]
fluorescence change on addition of tyrosine kinase Lyn [2]: increase in fluorescence over time
total negative charge ([1]; physiological pH): −5

tyrosine kinase Lyn
fluorescence over time (rate of the kinase reaction, 0 or 100 µM ATP) [3]: The addition of tyrosine kinase Lyn to the micelle comprising the substrate molecule and charge-balance molecule cause an increase in fluorescence over time.
